Assay results reported in patent publication US20260234236A1 (INTERVET, published 2026).

T1: Recombinant canine IL-13 (R&D Systems, Catalog: 5894-CL/CF) (canine, UniProt Q9N0W9 19-131, limits assumed)
T1 sequence (looked up): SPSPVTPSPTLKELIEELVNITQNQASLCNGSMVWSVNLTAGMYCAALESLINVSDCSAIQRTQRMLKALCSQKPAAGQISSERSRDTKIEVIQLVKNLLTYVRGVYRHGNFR

T2: Canine IL-13 with C-terminal Avi-HIS tag (canine, biotin label when loaded on SA biosensors (Example 4); site not stated)
T2 construct: also called cIL-13; biotinylated avitag-cIL13
T2 chain: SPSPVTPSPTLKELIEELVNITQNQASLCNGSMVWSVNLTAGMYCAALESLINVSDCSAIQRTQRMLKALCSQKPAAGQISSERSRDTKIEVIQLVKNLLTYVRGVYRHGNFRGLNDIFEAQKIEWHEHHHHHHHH

T3: Recombinant canine IL-4 (R&D Systems, Catalog: 752-CL/CF) (canine, UniProt O77762 25-132)
T3 sequence (looked up): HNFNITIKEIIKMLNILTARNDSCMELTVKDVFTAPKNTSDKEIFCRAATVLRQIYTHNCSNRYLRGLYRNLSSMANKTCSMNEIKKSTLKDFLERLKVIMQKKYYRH

T4: Canine IL-4 with C-terminal Avi-HIS tag (canine, biotin label when loaded on SA biosensors (Example 4); site not stated)
T4 construct: also called cIL-4; biotinylated avitag-cIL-4
T4 chain: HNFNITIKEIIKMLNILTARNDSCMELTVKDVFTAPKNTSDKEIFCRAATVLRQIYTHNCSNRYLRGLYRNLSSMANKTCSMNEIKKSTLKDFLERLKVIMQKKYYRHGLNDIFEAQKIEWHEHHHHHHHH


How the values were obtained:
[1] = biological target: T1, Recombinant canine IL-13 (R&D Systems, …); assay: cell-based or functional assay
[2] = biological target: T2, Canine IL-13 with C-terminal Avi-HIS tag; assay: BLI (OCTET HTX); biotin-mAb on SA biosensors, cIL-13 in solution; 1:1 model
Procedure: (§1) Selected scFv specific to cIL-4 or cIL-13 were converted into full length canine IgG mAbs and tested for binding by OCTET. All kinetics measurements were performed by OCTET HTX using SA biosensors and Data Acquisition 12.0 software. First, each biotin-labeled full-length anti-canine IL-4 or anti-canine IL-13 mAb, at a concentration of 5 μg/mL, were loaded onto the pre-rehydrated SA biosensors until binding signal change ascended to a […] threshold for all channels from the step start or for a maximum of 1200s to insure equal loading density. Second, the biosensors were placed into OCTET Kinetics Buffer (PBS+0.02% Tween20, 0.1% BSA) for the blocking phase for 60s. Third, for the association phase, full-length anti-canine IL-4 mAb or anti-canine IL-13 mAb loaded biosensors were placed into 2-fold serial dilutions from 1000 nM down to 15.6 nM of cIL-4 or cIL-13, respectively, in OCTET Kinetics Buffer for 60s. The last well was buffer alone and that sensor was used for reference sensor subtraction. Finally, the biosensors were placed into OCTET Kinetics Buffer for the dissociation phase for 180s. Analysis was performed using Data Analysis 12.0 software and curves were fitted using a 1:1 binding model.

[3] = biological target: T3, Recombinant canine IL-4 (R&D Systems, …); assay: cell-based or functional assay
[4] = biological target: T4, Canine IL-4 with C-terminal Avi-HIS tag; assay: BLI (OCTET HTX); biotin-mAb on SA biosensors, cIL-4 in solution; 1:1 model
Procedure: as §1

[5] = biological target: T4, Canine IL-4 with C-terminal Avi-HIS tag; assay: DSS cross-linking and High-Mass MALDI MS
Excerpt: In order to identify potentially discontinuous epitopes recognized by the antibodies of the present invention to their respective antigens, e.g., canine IL-4 or canine IL-13, a method was employed that was based on chemical crosslinking using disuccinimidyl suberate (DSS) and mass spectrometry detection (XL-MS) at CovalX Inc. (CovalX® Instrument Incorporated; Covalx.com). With this method, the binding of a canine antibody to its corresponding canine antigen in the presence of a mass-labeled chemical crosslinker is performed. The cross-linking experiments allow the direct analysis of non-covalent interaction by High-Mass MALDI (matrix assisted laser desorption ionization) mass spectrometry. […] The covalent binding generated allows the interacting species to survive the sample preparation process and the MALDI ionization. A High-Mass detection system allows characterizing the interaction in the High-Mass range.
The presence of the antigen-antibody complex were confirmed using High Mass MALDI detection. […]

Row | Binder | IL-13 IC50 (nM); inhibition of canine IL-13 mediated STAT6 phosphorylation in DH82 cells [1] | Kd [2] | koff [2] | kon [2] | IL-4 IC50 (nM); inhibition of canine IL-4 mediated STAT6 phosphorylation in DH82 cells [3] | Kd [4] | koff [4] | kon [4] | binding result [5]
1 | IL13-P3-1C6VH-cIgGB/IL13-P3-1C6VL-cCL (antibody, V domains shown) VH: ELTLQESGPGLVKPSQTLSLTCVVSGGSVTNTYEWDWIRQRPGRGLEWMGSWTDNTWYNPAFQGRISITADTAKNQLSLQLSSVTTGDTAVYFCARWTKRWGYDYWGQGTLVTVSS VL: QSVLTQPASVSGSLGQRVTISCSGRTNNIGYFGANWYQQVPGKAPKLLVSSYGNRPSGVPDRFSASNSANSATLTITGLQAEDEADYYCQSFDTTLGAVVFGGGTQLTVLG | 47.9 nM | – | – | – | – | – | – | – | –
2 | IL13-P3-1G5VH-cIgGB/IL13-P3-1G5VL-cCL (antibody, V domains shown, Full-length canine IgG-B; also called IL13-1G5) VH: EVQLVQSGGDLVKPGGTLRLSCVASGFTFSSYDMSWVRQSPGKGLQWVAAIWNDGSNTEYADAVKGRFTVSRDNAKNTVYLEMNSLRAEDTAMYYCVKEGPSYGYFDYWGQGTLVTVSS VL: SYELTQPPSVSVSLGQTATISCSGESLSKYYAQWFQQKAGQAPVLVIYQDTERPSGIPDRFSGSSSGNTHTLTISGARAEDEADYYCESAISPDTYVFGSGTQLTILG | 94.1 nM | 1.19 nM | 0.0018 s⁻¹ | 1.3e+06 M⁻¹ s⁻¹ | – | – | – | – | –
3 | IL4-P4A-1A10VH-cIgGB/IL4-P4-1A10VL-cCL (antibody, V domains shown, also called IL4-P4-1A10VH-cIgGB/IL4-P4-1A10VL-cCL) VH: EVQLVESGGDLVKPGGSLRLSCVASGFTFSDYDMTWVRQAPGKGLQWVADINNGGSSTTYADAVKGRFTISRDNAKNTLYLQMNSLRAEDTAMYYCAKEGDNTWLSFDSWGQGTLVTVSS VL: QSVLNQLPSVSGSLGQKVTIRCSGNTDNIGMVGAAWYRQVPGEAPKLLLYSDGNRPSGVPDRFSGSDSGRSATLTITGLQPEDEADYYCQSLDPTVPGNYLFGSGTQLTILG | – | – | – | – | 3.15 nM | 0.846 nM | 0.00105 s⁻¹ | 1.24e+06 M⁻¹ s⁻¹ | –
4 | IL4-P4A-2D11VH-cIgGB/IL4-P4A-2D11VL-cCL (antibody, V domains shown, Full-length canine IgG-B; also called IL4-2D11) VH: EEQLVEFGGDLVKPGESLRLSCVASGFTFNKYDMSWVRQAPGKGLQWVATVADDESFAYYTDSVKGRFTISRDNAKNTLYLQMNSLRAEDTAMYYCVGKTGSYWDIDFDLWGPGTLVTISS VL: QAVLTQPPSVSAALGQRVTISCSGSTDNVGTVGASWYQHLPGRAPKLLVYIVGDRPSGVPDRFSGSKSGTSATLTITGLQAEDEADYYCSSWDDSLRGIVFGGGTHLTVLG | – | – | – | – | 0.91 nM | – | – | – | binds
5 | IL13-P3-05VH-cIgGB/IL13-P3-05VL-cCL (antibody, V domains shown, Full-length canine IgG-B) VH: EVQLVESGGDSVRPGGSLRLSCVASGFTFSRYNMGWVRQAPGKGLQWVAWIYDGGSRTSYADAVKGRFTISRDNAKDTLYLQMDDLRVDDTAVYYCARDPSSWGSLFDYWGQGTLVTVSS VL: SYVLTQPPSVTVPLRQTARISCGGDNIRSKNVHWYQQKPGQAPVLIIYNDSNRPTGIPERFSGSNSGNMATLTIRGALAEDEADYYCQVWANDGYVFGSGTQLTVLG | 13.1 nM | 5.58 nM | 0.00148 s⁻¹ | 252000 M⁻¹ s⁻¹ | – | – | – | – | –
6 | IL13-P3-05VH-cIgGB/IL13-P3-05VLm-cCL (antibody, V domains shown, Full-length canine IgG-B. The light chain has N replaced by Q in CDRL2 to remove a potential glycosylation site; also called IL13-P3-05Lm; IL-13 P3-05Lm) VH: EVQLVESGGDSVRPGGSLRLSCVASGFTFSRYNMGWVRQAPGKGLQWVAWIYDGGSRTSYADAVKGRFTISRDNAKDTLYLQMDDLRVDDTAVYYCARDPSSWGSLFDYWGQGTLVTVSS VL: SYVLTQPPSVTVPLRQTARISCGGDNIRSKNVHWYQQKPGQAPVLIIYQDSNRPTGIPERFSGSNSGNMATLTIRGALAEDEADYYCQVWANDGYVFGSGTQLTVLG | 4.44 nM | 5.45 nM | 0.000793 s⁻¹ | 162000 M⁻¹ s⁻¹ | – | – | – | – | –
7 | IL13-P3-1B4VH-cIgGB/IL13-P3-1B4VL-cCL (antibody, Full-length canine IgG-B; also called IL13-1B4) heavy: ELTLQESGPGLVKPSQTLSLTCVVSGGSVTSNYYWNWIRQRPGRGLEWMGYWTGSTNYNPAFQGRISITADTAKNHFSLQLTSMTTEDTAVYYCARASTWLHGMDFWGHGTSLFVSSASTTAPSVFPLAPSCGSTSGSTVALACLVSGYFPEPVTVSWNSGSLTSGVHTFPSVLQSSGLYSLSSMVTVPSSRWPSETFTCNVAHPASKTKVDKPVPKRENGRVPRPPDCPKCPAPEMLGGPSVFIFPPKPKDTLLIARTPEVTCVVVDLDPEDPEVQISWFVDGKQMQTAKTQPREEQFNGTYRVVSVLPIGHQDWLKGKQFTCKVNNKALPSPIERTISKARGQAHQPSVYVLPPSREELSKNTVSLTCLIKDFFPPDIDVEWQSNGQQEPESKYRTTPPQLDEDGSYFLYSKLSVDKSRWQRGDTFICAVMHEALHNHYTQESLSHSPGK light: SYVLTQSPSVSGSLGQTVTISCSGTTIGVVGANWYQQLPGKAPKLLVHSDGGRLSGVPDRFSGSESGNSAALTITGLQAEDEADYYCQSFDTTLGYVFGSGTQLTILGQPKASPSVTLFPPSSEELGANKATLVCLISDFYPSGVTVAWKADGSPVTQGVETTKPSKQSNNKYAASSYLSLTPDKWKSHSSFSCLVTHEGSTVEKKVAPAECS | 97.5 nM | 8.12 nM | 0.00208 s⁻¹ | 256000 M⁻¹ s⁻¹ | – | – | – | – | –
